Test results from US11390894B2, “Biological processes for the production of aryl sulfates” (CysBio ApS, priority 2014, dated 2022).

B1: RsTAL: tyrosine ammonia-lyase from Rhodobacter sphaeroides (protein)
chain: MLAMSPPKPAVELDRHIDLDEAHSVASGGARIVLAPPARDRCRASEARLGAVIREARHVYGLTTGFGPLANRLVSGENVRTLQANLVHHLASGVGPVLDWTTARAMVLARLVAIAQGASGASEGTIARLIDLLNSELAPAVPMRGTVGASGDLTPLAHMVLCLQGRGDFLDRDGTRLDGAEGLRRGRLQPLDLSHRDALALVNGTSAMTGIALVNAHACRHLGNWAVALTALLAECLGGRTEAWAAALSDLRPHPGQKDAAARLRARVDGSARVVRHVIAERRLGASDIGTEPEAGQDAYSLRCAPQVLGAGFDTLAWHDRVLTIELNAVTDNPVFPPDGSVPALHGGNFMGQHVALTSDALATAVTVLAGLAERQIARLTDERLNRGLPPFLHRGPAGLNSGFMGAQVTATALLAEMRATGPASIHSISTNAANQDVVSLGTIAARLCREKIDRWAEILAILALCLAQAAELRCGSGLDGVSPAGKKLVQALREQFPPLETDRPLGQEIAALATHLLQQSPV
modifications: Rhodobacter sphaeroides
B2: SULT1A1 Homo sapiens, RmXAL: SULT1A1 from Homo sapiens co-expressed with tyrosine ammonia lyase RmXAL in E. coli (protein, UniProt P50225 1-295, looked up)
Sulfotransferase 1A1: MELIQDTSRPPLEYVKGVPLIKYFAEALGPLQSFQARPDDLLISTYPKSGTTWVSQILDMIYQGGDLEKCHRAPIFMRVPFLEFKAPGIPSGMETLKDTPAPRLLKTHLPLALLPQTLLDQKVKVVYVARNAKDVAVSYYHFYHMAKVHPEPGTWDSFLEKFMVGEVSYGSWYQHVQEWWELSRTHPVLYLFYEDMKENPKREIQKILEFVGRSLPEETVDFVVQHTSFKEMKKNPMTNYTTVPQEFMDHSISPFMRKGMAGDWKTTFTVAQNERFDADYAEKMAGCSLSFRSEL
modifications: co-expressed with RmXAL
notes: SULT1A1 from Homo sapiens co-expressed with tyrosine ammonia lyase RmXAL in E. coli
B3: RcTAL: tyrosine ammonia-lyase from Rhodobacter capsulatus (protein, listed as Rhodobacter capsulatus)
chain: MLDATIGRKRMTLQSQTAKDCLALDGALTLVQCEAIATHRSRISVTPALRERCARAHARLEHAIAEQRHIYGITTGFGPLANRLIGADQGAELQQNLIYHLATGVGPKLSWAEARALMLARLNSILQGASGASPETIDRIVAVLNAGFAPEVPAQGTVGASGDLTPLAHMVLALQGRGRMIDPSGRVQEAGAVMDRLCGGPLTLAARDGLALVNGTSAMTAIAALTGVEAARAIDAALRHSAVLMEVLSGHAEAWHPAFAELRPHPGQLRATERLAQALDGAGRVCRTLTAARRLTAADLRPEDHPAQDAYSLRVVPQLVGAVWDTLDWHDRVVTCELNSVTDNPIFPEGCAVPALHGGNFMGVHVALASDALNAALVTLAGLVERQIARLTDEKLNKGLPAFLHGGQAGLQSGFMGAQVTATALLAEMRANATPVSVQSLSTNGANQDVVSMGTIAARRARAQLLPLSQIQAILALALAQAMDLLDDPEGQAGWSLTARDLRDRIRAVSPGLRADRPLAGDIEAVAQGLRHPSAADPPA
B4: FjTAL: tyrosine ammonia-lyase from Flavobacterium johnsoniae (protein, listed as Flavobacterium johnsoniae)
chain: MNTINEYLSLEEFEAIIFGNQKVTISDVVVNRVNESFNFLKEFSGNKVIYGVNTGFGPMAQYRIKESDQIQLQYNLIRSHSSGTGKPLSPVCAKAAILARLNTLSLGNSGVHPSVINLMSELINKDITPLIFEHGGVGASGDLVQLSHLALVLIGEGEVFYKGERRPTPEVFEIEGLKPIQVEIREGLALINGTSVMTGIGVVNVYHAKKLLDWSLKSSCAINELVQAYDDHFSAELNQTKRHKGQQEIALKMRQNLSDSTLIRKREDHLYSGENTEEIFKEKVQEYYSLRCVPQILGPVLETINNVASILEDEFNSANDNPIIDVKNQHVYHGGNFHGDYISLEMDKLKIVITKLTMLAERQLNYLLNSKINELLPPFVNLGTLGFNFGMQGVQFTATSTTAESQMLSNPMYVHSIPNNNDNQDIVSMGTNSAVITSKVIENAFEVLAIEMITIVQAIDYLGQKDKISSVSKKWYDEIRNIIPTFKEDQVMYPFVQKVKDHLINN
B5: RmXAL: enzyme from Rhodotorula mucilaginosa/Rhodotorula rubra with tyrosine ammonia lyase activity (protein, listed as Rhodotorula mucilaginosa)
chain: MAPSVDSIATSVANSLSNGLHAAAAANGGDVHKKTAGAGSLLPTTETTQLDIVERILADAGATDQIKLDGYTLTLGDVVGAARRGRSVKVADSPHIREKIDASVEFLRTQLDNSVYGVTTGFGGSADTRTEDAISLQKALLEHQLCGVLPTSMDGFALGRGLENSLPLEVVRGAMTIRVNSLTRGHSAVRIVVLEALTNFLNHGITPIVPLRGTISASGDLSPLSYIAASITGHPDSKVHVDGKIMSAQEAIALKGLQPVVLGPKEGLGLVNGTAVSASMATLALTDAHVLSLLAQALTALTVEAMVGHAGSFHPFLHDVTRPHPTQIEVARNIRTLLEGSKYAVHHETEVKVKDDEGILRQDRYPLRCSPQWLGPLVSDMIHAHAVLSLEAGQSTTDNPLIDLENKMTHHGGAFMASSVGNTMEKTRLAVALMGKVSFTQLTEMLNAGMNRALPSCLAAEDPSLSYHCKGLDIAAAAYTSELGHLANPVSTHVQPAEMGNQAINSLALISARRTAEANDVLSLLLATHLYCVLQAVDLRAMEFEHTKAFEPMVTELLKQHFGALATAEVEDKVRKSIYKRLQQNNSYDLEQRWHDTFSVATGAVVEALAGQEVSLASLNAWKVACAEKAIALTRSVRDSFWAAPSSSSPALKYLSPRTRVLYSFVREEVGVKARRGDVYLGKQEVTIGTNVSRIYEAIKSGCIAPVLVKMMA

What was measured:
[1] = test system: tyrosine; assay: In vivo supply of p-coumaric acid by tyrosine ammonia-lyases co-expressed with SULT1A1 rat in E. coli; format: cell-based, Escherichia coli; settings: M9 0.2% glucose, 2 mM tyrosine, 1 mM IPTG, overnight 37° C., supernatant
Method: (§1) The concentration of p-courmaric acid (pHCA) and zosteric acid in the supernatant was quantified by high performance (HPLC) and compared to chemical standards. HPLC was done on a Thermo setup using a HS-F5 column and mobile phases: 5 mM ammonium formate pH 4.0 (A) and acetonitrile (B) at 1.5 mL min-1, using a gradient elution starting at 5% B. From 0.5 min after injection to 7 min, the fraction of B increased linearly from 5% to 60%, and between 9.5 min and 9.6 the fraction of B decreased back to 5%, and remaining there until 12 min. pHCA and zosteric acid were quantified by measuring absorbance at 277 nm.
The genes encoding the tyrosine ammonia-lyases RcTAL (from Rhodobacter capsulatus; SEQ ID NO: 48), RsTAL (from Rhodobacter sphaeroides; SEQ ID NO: 17) and FjTAL (from Flavobacterium johnsoniae; SEQ ID NO: 14) were cloned into expression vectors as follows. Genes (SEQ ID NO: 49, 50, and 51, respectively) were optimized for E. coli and synthesized by GeneArt, amplified by PCR using the oligonucleotides shown in the table below, and cloned into pCDFDuet-1 (Novagen): The plasmid was digested with NdeI and BgIII and gel purified. The genes were inserted by isothermal assembly using Gibson Assembly Master Mix (New England Biolabs), and transformed into chemically competent DH5a (laboratory strain) or NEB5α (New England Biolabs), selecting for resistance to 50 μg mL^−1 spectinomycin in LB medium. Resulting plasmids pCBJ215 (RsTAL), pCBJ228 (FjTAL) and pCBJ297 (RcTAL) (FIGS. 6 to 8, respectively) were co-transformed by electroporation into the E. coli expression strain BL21(DE3) (Invitrogen/Life Technologies) together with a pETDuet-1-based plasmid expressing SULT1A1 from rat (Example 1). Transformation cultures were plated on LB containing 50 μg mL^−1 spectinomycin and 100 μg mL^−1 ampicillin. A control strain carrying pCDFDuet-1 was also made.
Strains harboring recombinant plasmids were pre-cultured in 2×YT liquid medium with 100 μg mL^−1 ampicillin and 50 μg mL^−1 spectinomycin and incubated at 37° C. and 250 rpm overnight. The following day, each pre-culture was transferred into 5 ml of M9 minimal medium with 0.2% glucose, 2 mM tyrosine and 1 mM IPTG for induction of expression. Cultures were placed in an incubator at 37° C. with shaking at 250 rpm overnight. The supernatants were then collected by centrifugation twice and applied to HPLC analysis as described in example 1, and the titers of p-coumaric acid (pHCA) and zosteric acid (ZA) were quantified using chemical standards and are presented in the table below.

[2] = test system: tyrosine; assay: pHCA and zosteric acid in culture media of E. coli expressing an aryl sulfotransferase in combination with a tyrosine ammonia lyase; format: cell-based, Escherichia coli; settings: M9 glucose, 0.1 mM IPTG, no substrate added
Method: as §1
The enzyme RmXAL from Rhodotorula mucilaginosa/Rhodotorula rubra (SEQ ID NO: 20) has tyrosine ammonia lyase activity, thus catalyzing the non-oxidative deamination of the amino acid tyrosine, releasing p-coumaric acid (pHCA) and ammonia. The gene encoding RmXAL was codon optimized using standard algorithms for expression in E. coli available by GeneArt (Life Technologies) and amplified by PCR using the primers shown in table 5 and inserted into the pCDFDuet-1 vector (Novagen/Life Technologies), which had been digested by the restriction enzymes NdeI and BgIII, using Gibson reaction (New England Biolabs). FIG. 4 provides an image of the plasmid expressing RmXAL.
The resulting plasmid was co-transformed into E. coli BL21(DE3)pLysS cells (Life Technologies) alone or together with the plasmid expressing SULT1A1 from Homo sapiens (example 1). The resulting strains was grown in M9 media with glucose as a carbon source, with 0.1 mM IPTG for induction of gene expression. Samples were taken as described previously (example 1) for analysis of product formation. […] RmXAL allowed the production of pHCA without addition of any substrate, thus providing a heterologous pathway from the cells normal metabolism to a heterologous product. The additional expression of an aryl sulfotransferase, exemplified by SULT1A1 from Homo sapiens, allowed the in vivo conversion of pHCA to zosteric acid. Thus, an aryl sulfotransferase can act upon a compound produced in vivo and the cells can release the resulting sulfated product to the medium.

Molecule | μM ZA [1] [µM] | μM pHCA [1] [μM] | Zosteric acid formed [2] | pHCA [2] [mM]
B1 | <1 | 78 | – | –
B2 | – | – | 0.01 mM | 0.02
B3 | <1 | 20 | – | –
B4 | 16 | 398 | – | –
B5 | – | – | Not detectable | 0.04
